Assay: soluble on expression in E. coli; label from the status in PepcDB or PDB records

| Sequence | soluble on expression in E. coli |
| --- | --- |
| MAKIAAIFQLLDKNVTVSSHRLELLSPARDAAIAREAILHGADAVYIGGPGFGARHNASNSLKDIAELVPFAHRYGAKIFVTLNTILHDDELEPAQRLITDLYQTGVDALIVQDMGILELDIPPIELHASTQCDIRTVEKAKFLSDVGFTQIVLARELNLDQIRAIHQATDATIEFFIHGALCVAYSGQCYISHAQTGRSANRGDCSQACRLPYTLKDDQGRVVSYEKHLLSMKDNDQTANLGALIDAGVRSFKIEGRYKDMSYVKNITAHYRQMLDAIIEERGDLARASSGRTEHFFVPSTEKTFHRGSTDYFVNARKGDIGAFDSPKFIGLPVGEVVKVAKDHLDVAVTEPLANGDGLNVLIKREVVGFRANTVEKTGENQYRVWPNEMPADLHKIRPHHPLNRNLDHNWQQALTKTSSERRVAVDIELGGWQEQLILTLTSEEGVSITHTLDGQFDEANNAEKAMNNLKDGLAKLGQTLYYARDVQINLPGALFVPNSLLNQFRREAADMLDAARLASYQRGSRKPVADPAPVYPQTHLSFLANVYNQKAREFYHRYGVQLIDAAYEAHEEKGEVPVMITKHCLRFAFNLCPKQAKGNIKSWKATPMQLVNGDEVLTLKFDCRPCEMHVIGKIKNHILKMPLPGSVVASVSPDELLKTLPKRKG | not soluble |
| MAKIGLFFGSDTGTTRKIAKQIKDMFDDEVMAKPLNVNRADVADFMAYDFLILGTPTLGDGQLPGLSANAASESWEEFLPRIADQDFSGKTIALFGLGDQVTYPLEFVNALFFLHEFFSDRGANVVGRWPAKGYGFEDSLAVVEGEFLGLALDQDNQAALTPERLKGWLSLIAADFGLVLPA | soluble |
| MAKITEENYVSLEDLMQLLNSSESTIRRDLGELEQEGRLHRVHGGAELFHSLQEELSNQEKSVKNSHIKKAIAQRASQLIYDNDVIFIDAGTTTEFLLPFLQAKNLTVVTNSIHHAARLVELSIETIIVGGYVKQTTDASIGNVALEQIRQMNFDKAFLGMNGVDDSYLTTPDMEEAVIKKAVLSNAKLAYILVDGTKIGQVSFVKVAPINDVTIITLGGSASILKQIKEKAKVIEL | soluble |
| MAKKKDEITIRSSAAEYLTYVASVGDQQDSIEMRYEDENIWLTQKMMATLYDVDVRTINEHIKKIYSDSELEEDSTIRNFRIVQTEGSRQVTRDTKHYNLQMIIAVGFKVNSERAVQFRKWVNQIAKDYTIKGWVMDDERLKRGTYLTEKYFDEQLERIREIRASERKFYQKITDLYATAIDYDKNAAMTRRFYSTVQNKMHYAVHGHTAAELIVERADHTKEHMGLTTWEDAPEGKIKKSDVTVAKNYLSQDEMKQLNRMVTAYLDFAENMTLRHIPLTMQDWEKRLNSFIEMFDYGILQDAGKVSAEIAKLHAETEFEKYRVIQDRLFMSDFDKFMLELEENTKK | not soluble |
| MAKLGPAGYSPYPVAVTEGVLTPPPGKALMFNEIVDEEIAMREAAKAMLTRDNPTIFPGPQVLYAWNEEAKEKAKLVRKMAEVLGAKIIPMYDYRPKYPKIDPEKEINPNHPNLTIWHNKIKACIFIGVHCHYANVALKIIRAETDCFTIAMCSMAGHEDAMITLRDQHVEDLEKFIKIAEEVKKELGK | not soluble |
| MAKLRVGIVFGGKSAEHEVSLQSAKNIVDAIDKTRFDVVLLGIDKAGQWHVNDAENYLQNADDPAHIALRPSAISLAQVPGKHQHQLINAQNGQPLPTVDVIFPIVHGTLGEDGSLQGMLRVANLPFVGSDVLSSAACMDKDVAKRLLRDAGLNIAPFITLTRTNRHAFSFAEVESRLGLPLFVKPANQGSSVGVSKVANEAQYQQAVALAFEFDHKVVVEQGIKGREIECAVLGNDNPQASTCGEIVLNSEFYAYDTKYIDDNGAQVVVPAQIPSEVNDKIRAIAIQAYQTLGCAGMARVDVFLTADNEVVINEINTLPGFTNISMYPKLWQASGLGYTDLISRLIELALERHTANNALKTTM | soluble |
| MAKLSGSIDVPLPPEEAWMHASDLTRYREWLTIHKVWRSKLPEVLEKGTVVESYVEVKGMPNRIKWTIVRYKPPEGMTLNGDGVGGVKVKLIAKVAPKEHGSVVSFDVHLGGPALLGPIGMIVAAALRADIRESLQNFVTVFAG | soluble |
| MAKLYFYYSTMNAGKSTTLLQSSYNYRERDMNTLVYTAAIDDRFGVGKVTSRIGISQDAFLFRSETNLFDEINEHLKKEKVHCVLVDEAQFLSKQQVYQLSDVVDKLKIPVLCYGLRTDFQAELFEGSKYLLAWADQLEELKTICYCGRKANFVLRLNDQGEVIKEGAQIQIGGNDSYLSVCRLHYKEKCGQILEHHHHHH | soluble |
| MAKPSFSCSACGASFTKWSGRCEGCGDWNTISQDAGLSAGPAKKSLGAKRGRAVTLTDLASEEAPPPRAMSGIGELDRVLGGGLVPASAILVGGDPGIGKSTLLLQAVAAFARKGLKTLYVSGEEASAQVRMRARRLGLADAPVQLAAETNLRDILTTLEAEKPGLVIIDSIQTMWADNVDSAPGSVSQVRASAHELTTFAKRTGISVIMVGHVTKDGQIAGPRVVEHMVDTVLYFEGERGHQFRILRSVKNRFGAADEIGVFEMTGAGLAEVTNPSALFLSERGAPSPGSVVFAGIEGTRPVLVELQALVAPSPHSQPRRTVVGWDGGRLAMILAVLEARCGIPFAGLDVYLNVAGGLKISEPAADLAVAAALLSAREDRALPGDTVIFGEISLSGALRPASQTENRLKEAQKLGFTSAIAPAGGKTGTLEGLTMTRPTDLVGFVGEFFGAGLEHHHHHH | not soluble |
| MAKRKAEDTQSDKMATAEKVAQNDYTIGLVDPVKDYQKLIETRVQVDEIVDDDVTKENFDRTAAAARDVIWRLLFDEAGTSQSNTEKASQLLEEYRGDACFYDPTPYNEWIVKLRDEVLKKELLDFWRDVLVKKQLGPCWSRDSDLFDSDDTPPLEFYAHAGCTAPFAASLKVRAALEEQASLDQDGPATPTTPGELSADDAAALSGEFEATLTKENPLEEYRTLMKRFVLTKIIVPDSVHQASVKKIAAAAREIIWKLLFDGTPSAEDQNKAAELLQEYKGDAGFYGPDDYNSWIFNLRDEVLTKELLDFWRDKMVKMELGPSCARDSDYYDNEDPLPFEFYEKAGCKAPFEGPVNDD | soluble |
| MAKRKICQAMAVVLALGMCTTGLTGCGNEKRADGKTEIEVVSYKPEAVKAFEKIEKQFNETHDDIHLTISSPNEAMTILKTRFIREDYPDIIAIGGDINYSNFLDADLFEDISDLDAVDNVKEAYLDMDKELEFIPKDGTYALPYAANAAGVLYNKDMFAENGWKVPTTWSEFTALCDEIKESGTLPLYLGFKDTWTCLAPWNALAVGLCDSDTCNQVNMGNTTFEEAYSPVADKIRTLLDYAEDNPYAYSYNDACTAFARGESAMYTIGSYAIPQIKSVNPDMNIGSFTFPANDNEADNVLNSGIDLQLSVMKACKNKEAAYEVLEYLYSDETIQTYLDDQGGIACKEGDFAIPDTLEDMQEYIKDNRMSDYQDHHYPSEMSVDAMIQTYLLDTGDNAKEKFLKKFDSDWERYNRDLIREVQDYQKEQEDAK | not soluble |
| MAKSLLFITSFLKPRYNKPIMEKNWNVGTKYLNDKTRIIVVGITGREASQVVTESEALYPGFIKVGVTPGKGGTEVAGVPVFNTVKEALSSPEGKDVNTGLVYVPPASVKDAVIELIDAGIKLIYIVTEHVPIRDTVYFYHYAKERGVTIVGPTSLGCIVPRIPARIGAIGGKNPSIAYADGGLVILSKSGGLTTTTAEMFKRRGWGVYMALALGGDVISCTTFADVLEEIADDPNVKGVVIQGEVGGTYEEQAAETILRLYKEGRWNKPVAAFVAGKFQEKMEGVSFGHAGAIVERGKGKATDKIRMFNEVGKETGLVKVAEFYHDLVNCIEELGVPRDFEDSTPGGKVEPLYRTIDPETCEFKPQD | soluble |
| MAKSRTIYVCAECGGTSLKWQGKCPHCSAWNTLEETVESAAPSAGGHRYAPLAAASPVRSLSEIEARETPRQPTGLDEFDRVLGGGLVAGAVVLIGGDPGIGKSTLLLQALASLSATTKVLYVTGEESAEQVALRARRLGLQTGNVDLLAEIRLEAIQAAVSEQKPTVAVIDSIQTLYSGELTAAPGSVSQVRECAAQLTRLAKQTGIAIVMIGHVTKDGALAGPRVLEHIVDTVLYFEGDTHSSFRLVRAFKNRFGAVNELGVFAMTDRGLRGVANPSALFLSQHQQQVAGSCVLATQEGTRPLLVEVQALVDTSHAPNPRRLTVGLEGNRLAMLLAVMHRHAGVSTYDQDVFVNAVGGVRITEPAADLPVLLAIMSSLRDKPLPAGLVAFGEIGLAGEIRPAPRGQERLREAAKLGFSVALIPKANAPRQPIEGLEIWAVDRLDAALDKLRLEHHHHHH | soluble |
| MAKSTVRYVCSACGAVSLKYQGRCFECQSWGTLVETHLEEPDAKVRKKRPAGSMPEVQNLDDDAPSGFHRTLTGIGELDRVLGGGLMEASAILVGGEPGIGKSTLMLQLVPRLAGKKVLYVAGEESPNQIRERARRLSIKAPNLRLVSEVALERILDAIANEQPEMVIVDSIQTVYSSDYQSSAGTITQIRECAASLIRAAKEQNFILLIIGHITKEGSLAGPKALEHMVDTVVQFEGENYQRYRIIRSVKNRFGPTNEIGVFKMGEEGLTEVSNPSEFFISDRRTDVPGTAVLAGIEGSRALMVEVQALVSRTGYSMPQRISTGFDLKRIAIILAVLEKRLQFQTAGQDVFVKIAGGLKLVEPAADLAIAAAVASGLQDKPCNPTACCCGEIGLSGELRAISDGERRIREAVHLGFTSIVLPESNTRELKPSLKKLPIRIAGCRTLHEALEAMGV | not soluble |
| MAKTLYEKLFDAHVVYEAENETPLLYIDRHLVHEVTSPQAFDGLRAHGRPVRQPGKTFATMDHNVSTQTKDINACGEMARIQMQELIKNCKEFGVELYDLNHPYQGIVHVMGPEQGVTLPGMTIVCGDSHTATHGAFGALAFGIGTSEVEHVLATQTLKQGRAKTMKIEVQGKAAPGITAKDIVLAIIGKTGSAGGTGHVVEFCGEAIRDLSMEGRMTLCNMAIEMGAKAGLVAPDETTFNYVKGRLHAPKGKDFDDAVAYWKTLQTDEGATFDTVVTLQAEEISPQVTWGTNPGQVISVNDNIPDPASFADPVERASAEKALAYMGLKPGIPLTEVAIDKVFIGSCTNSRIEDLRAAAEIAKGRKVAPGVQALVVPGSGPVKAQAEAEGLDKIFIEAGFEWRLPGCSMCLAMNNDRLNPGERCASTSNRNFEGRQGRGGRTHLVSPAMAAAAAVTGHFADIRNIK | soluble |
| MAKTPGLNLSISERASNRLAEIYRNSKENLRISVESGGCHGFQYNLTLEPATKPDIKNDVKDKEFSDDLDDDDSKDIIYVLPEDKGRVIIDSKSLNILNNTTLTYTNELIGSSFKIINGSLKSSCGCGSSFDIEN | not soluble |
| MALARANSPQEALLWALNDLEENSFKTLKFHLRDVTQFHLARGELESLSQVDLASKLISMYGAQEAVRVVSRSLLAMNLMELVDYLNQVCLNDYREIYREHV | soluble |
| MALASAADFFAQQHPSYGRHIGQLYERAVKNDLSFTHTFVNPQVNRSLGYMEEDGEPIAAKVVRETADGLIIKGARLLATQGGMTDELLVLPAGGALLGDEYMYAFSIPSNAPGLKFVCRPSLAAGALVFDAPLSSRFDEIDAMVVFDEVLVPWDRVFFYKNAWFAKEMEEETHLAIMLLHQVLARRIVKTEFFLGTVELLSEAIQIGGYQHVQEKIGEIAAALEALRGMLLASELHAKPDRRGTMVPDPAPLYAAAFLYPRLYPRFADIIQLLGASGLVCLPTEADFSSPLRPDLDRYLQAATLPAEQRVRLFRFAWDMAMSAFGTRQTLYERFFFGDPARFATTFYHRYDREACAEIVRQFLDSEQR | not soluble |
| MALITTGSKFLRALEQEGALAVYAPLEGGYEGRYLRRLRSKGYSALTYSARGLGDPAQFLMDIHGVRPPHLGKQTIGNEAAVGRVEYVLPLVGYPLQNLPANAKGLVLWLLEGHVLSPQELSYFVTLPQAEPRLKVVIEMGGDRGFSWQPLAAVAEAALEHHHHHH | not soluble |
